Results: the MegaScale stability set (Tsuboyama et al. 2023)

B1: 6YSE (parent)
chain: HERALMVNRLQKLTRMLRVHPDPKWKQEQQELIKRLK

Variants of: B1
Test: folding stability dG (cDNA display proteolysis); higher = more stable
Conditions: PBS, room temperature
With HERALMVNRLQKLTRMLRVHPDPKWKQEQQELIKRLQ [K37Q] the “folding stability dG” value was 1.8 kcal/mol.
For HERALMVNRLQKLTRMLRVHPDPKWKQEQQELIKRLI [K37I], the “folding stability dG” value was 1.08 kcal/mol.
For HERALMVNRLQKLTRMLRVHPDPKWKQEQQELIKRLT [K37T], the “folding stability dG” value was 1.25 kcal/mol.
With HERALMVNRLQKLTRMLRVHPDPKWKQEQQELIKRLR [K37R] the “folding stability dG” value was 1.55 kcal/mol.
With HERALMVNRLQKLTRMLRVHPDPKWKQEQQELMKRLK [I33M] the “folding stability dG” value was 0.592 kcal/mol.
For HERALMVNRLQKLTRMLRVHPDPKWKQEQQELLKRLK [I33L], the “folding stability dG” value was 1.17 kcal/mol.
In the case of HERALMVNRLQKLTRMLRVHPDPKWKQEQQELRKRLK [I33R], the “folding stability dG” value is reported as 0.898 kcal/mol.
With HERALMVNRLQKLTRMLRVHPDPKWKQEQQELHKRLK [I33H] the “folding stability dG” value was -0.268 kcal/mol.
With HERALMVNRLQKLTRMLRVHPDPKWKKEQQELIKRLK [Q27K] the “folding stability dG” value was 1.46 kcal/mol.
For HERALMVNRLQKLTRMLRVHPDPKWKTEQQELIKRLK [Q27T], the “folding stability dG” value was 1.01 kcal/mol.
With HERALMVNRLQKLTRMNRVHPDPKWKQEQQELIKRLK [L17N] the “folding stability dG” value was 0.006 kcal/mol.
With HERALMVNRLQKLTRMRRVHPDPKWKQEQQELIKRLK [L17R] the “folding stability dG” value was -0.68 kcal/mol.
With HERATMVNRLQKLTRMLRVHPDPKWKQEQQELIKRLK [L5T] the “folding stability dG” value was 1.27 kcal/mol.
With HERAFMVNRLQKLTRMLRVHPDPKWKQEQQELIKRLK [L5F] the “folding stability dG” value was 1.19 kcal/mol.
In the case of HERADMVNRLQKLTRMLRVHPDPKWKQEQQELIKRLK [L5D], the “folding stability dG” value is reported as 1 kcal/mol.
For HERALMVNRLQKLTRMLRVHPDPKWKQEQQELIKHLK [R35H], the “folding stability dG” value was 0.82 kcal/mol.
With HERALMVNRLQKLTRMLRVHPDPKWKQEQQELIKGLK [R35G] the “folding stability dG” value was -0.14 kcal/mol.
With HERALMVNRLQKLTRMLRVHPDPKWKQEQQELIKQLK [R35Q] the “folding stability dG” value was 1.19 kcal/mol.
In the case of HERALMVNRLQKLTRMLRVHPDPKWKQEQQELIKYLK [R35Y], the “folding stability dG” value is reported as 1.16 kcal/mol.
In the case of HERALMVNRLQKLTRMLRVHPDPKWKQEQQELIKLLK [R35L], the “folding stability dG” value is reported as 1.73 kcal/mol.
For HERALMVNRLQKLTRMLRVHPDPKWKQEQQELIKALK [R35A], the “folding stability dG” value was 1.24 kcal/mol.
For HERALMVNRLQKLTRMLRVHPDPKWKQEQQELIKTLK [R35T], the “folding stability dG” value was 0.734 kcal/mol.
In the case of HERALMVNRLQKLTRMLRVHPDPKWKQEQQELIKSLK [R35S], the “folding stability dG” value is reported as 0.493 kcal/mol.
In the case of HERALMVNRLQKLTRMLRVHPDPKWKQEQQELIKWLK [R35W], the “folding stability dG” value is reported as 1.42 kcal/mol.
For HERALMVNRLQKLTRALRVHPDPKWKQEQQELIKRLK [M16A], the “folding stability dG” value was 0.312 kcal/mol.
For HERALMVNALQKLTRMLRVHPDPKWKQEQQELIKRLK [R9A], the “folding stability dG” value was -0.164 kcal/mol.
In the case of HERALMVNHLQKLTRMLRVHPDPKWKQEQQELIKRLK [R9H], the “folding stability dG” value is reported as 0.157 kcal/mol.
In the case of HERALMVNSLQKLTRMLRVHPDPKWKQEQQELIKRLK [R9S], the “folding stability dG” value is reported as -0.602 kcal/mol.
With HERALMVNMLQKLTRMLRVHPDPKWKQEQQELIKRLK [R9M] the “folding stability dG” value was 0.818 kcal/mol.
With HERALMVNCLQKLTRMLRVHPDPKWKQEQQELIKRLK [R9C] the “folding stability dG” value was 1.19 kcal/mol.
In the case of NERALMVNRLQKLTRMLRVHPDPKWKQEQQELIKRLK [H1N], the “folding stability dG” value is reported as 1.45 kcal/mol.
For GERALMVNRLQKLTRMLRVHPDPKWKQEQQELIKRLK [H1G], the “folding stability dG” value was 1.05 kcal/mol.
With TERALMVNRLQKLTRMLRVHPDPKWKQEQQELIKRLK [H1T] the “folding stability dG” value was 1.45 kcal/mol.
With CERALMVNRLQKLTRMLRVHPDPKWKQEQQELIKRLK [H1C] the “folding stability dG” value was 2.12 kcal/mol.
In the case of FERALMVNRLQKLTRMLRVHPDPKWKQEQQELIKRLK [H1F], the “folding stability dG” value is reported as 1.59 kcal/mol.
With KERALMVNRLQKLTRMLRVHPDPKWKQEQQELIKRLK [H1K] the “folding stability dG” value was 1.42 kcal/mol.
In the case of MERALMVNRLQKLTRMLRVHPDPKWKQEQQELIKRLK [H1M], the “folding stability dG” value is reported as 1.68 kcal/mol.
In the case of HERALMVERLQKLTRMLRVHPDPKWKQEQQELIKRLK [N8E], the “folding stability dG” value is reported as 1.56 kcal/mol.
With HERALMVDRLQKLTRMLRVHPDPKWKQEQQELIKRLK [N8D] the “folding stability dG” value was 1.45 kcal/mol.
With HERALMVHRLQKLTRMLRVHPDPKWKQEQQELIKRLK [N8H] the “folding stability dG” value was 1.47 kcal/mol.
For HERALMVNRLQKLTRMLRVHPDPKWGQEQQELIKRLK [K26G], the “folding stability dG” value was -0.052 kcal/mol.
In the case of HERALMVNRLQKLTRMLRVHPDPKWLQEQQELIKRLK [K26L], the “folding stability dG” value is reported as 1.45 kcal/mol.
In the case of HERALMVNRLQKLTRMLRVHPDPKWTQEQQELIKRLK [K26T], the “folding stability dG” value is reported as 0.715 kcal/mol.
With HERALMVNRLQKLTRMLRVHPDPKWSQEQQELIKRLK [K26S] the “folding stability dG” value was 0.461 kcal/mol.
With HERALMVNRLQKLTRMLRVHPDPKWKQEQDELIKRLK [Q30D] the “folding stability dG” value was 0.872 kcal/mol.
For HERALMVNRLQKLTRMLRVHPDPKWKQEQTELIKRLK [Q30T], the “folding stability dG” value was 1.13 kcal/mol.
In the case of HERALMVNRLQKLTRMLRVHPDPKWKQEQVELIKRLK [Q30V], the “folding stability dG” value is reported as 1.1 kcal/mol.
For HERALMVNRLQKLTRMLRVHPDPKWKQEQRELIKRLK [Q30R], the “folding stability dG” value was 1.21 kcal/mol.
In the case of HERALMVNRLQKLTRMLRVHPDPKWKQEQNELIKRLK [Q30N], the “folding stability dG” value is reported as 0.979 kcal/mol.
With HERALMVNRLQKLTRMLRVHPDPKWKQEQCELIKRLK [Q30C] the “folding stability dG” value was 1.75 kcal/mol.
With HERALMVNRLQKLTRMLRVHCDPKWKQEQQELIKRLK [P21C] the “folding stability dG” value was 0.966 kcal/mol.
With HERALMVNRLQKLTRMLRVHIDPKWKQEQQELIKRLK [P21I] the “folding stability dG” value was 0.664 kcal/mol.
With HERALMVNRLQKLTRMLRVHRDPKWKQEQQELIKRLK [P21R] the “folding stability dG” value was 0.878 kcal/mol.
In the case of HERALMVNRLQKLTRMLRVHDDPKWKQEQQELIKRLK [P21D], the “folding stability dG” value is reported as 1.37 kcal/mol.
With HERALMVNRLQKLTRMLRVHYDPKWKQEQQELIKRLK [P21Y] the “folding stability dG” value was 2.16 kcal/mol.
With HEKALMVNRLQKLTRMLRVHPDPKWKQEQQELIKRLK [R3K] the “folding stability dG” value was 1.03 kcal/mol.
With HEHALMVNRLQKLTRMLRVHPDPKWKQEQQELIKRLK [R3H] the “folding stability dG” value was 1.18 kcal/mol.
For HEQALMVNRLQKLTRMLRVHPDPKWKQEQQELIKRLK [R3Q], the “folding stability dG” value was 0.786 kcal/mol.
For HERALMVNRLQKLTRMLRVHPDPKWKQSQQELIKRLK [E28S], the “folding stability dG” value was -0.485 kcal/mol.
In the case of HERALMVNRLQKLTRMLRVHPDPKWKQAQQELIKRLK [E28A], the “folding stability dG” value is reported as 0.638 kcal/mol.
For HERALMVNRLQKLTRMLVVHPDPKWKQEQQELIKRLK [R18V], the “folding stability dG” value was 0.181 kcal/mol.
With HERALMVNRLQKLTRMLFVHPDPKWKQEQQELIKRLK [R18F] the “folding stability dG” value was 0.738 kcal/mol.
For HERALMVNRLQKLTRMLQVHPDPKWKQEQQELIKRLK [R18Q], the “folding stability dG” value was 1.19 kcal/mol.
With HERALMVNRLQKLTRMLNVHPDPKWKQEQQELIKRLK [R18N] the “folding stability dG” value was 0.669 kcal/mol.
For HERALMVNRLQKLTRMLRVHPDPKWKQEFQELIKRLK [Q29F], the “folding stability dG” value was 1.53 kcal/mol.
With HERALMVNRLQKLTRMLRVHPDPKWKQEWQELIKRLK [Q29W] the “folding stability dG” value was 1.47 kcal/mol.
In the case of HERALMVNRLQKLTRMLRVHPDPKWKQERQELIKRLK [Q29R], the “folding stability dG” value is reported as 1.47 kcal/mol.
